# Patent US20230181723A1 (UNIVERSITY OF MARYLAND COLLEGE PARK, published 2023)
# T1: human TMEM129 (E3 ligase), endogenous in HeLa cells (human, UniProt A0AVI4 1-362)
# T1 construct: whole, on cells; Endogenous protein in HeLa lysates; also called E3 ligase TMEM129
# T1 sequence (looked up): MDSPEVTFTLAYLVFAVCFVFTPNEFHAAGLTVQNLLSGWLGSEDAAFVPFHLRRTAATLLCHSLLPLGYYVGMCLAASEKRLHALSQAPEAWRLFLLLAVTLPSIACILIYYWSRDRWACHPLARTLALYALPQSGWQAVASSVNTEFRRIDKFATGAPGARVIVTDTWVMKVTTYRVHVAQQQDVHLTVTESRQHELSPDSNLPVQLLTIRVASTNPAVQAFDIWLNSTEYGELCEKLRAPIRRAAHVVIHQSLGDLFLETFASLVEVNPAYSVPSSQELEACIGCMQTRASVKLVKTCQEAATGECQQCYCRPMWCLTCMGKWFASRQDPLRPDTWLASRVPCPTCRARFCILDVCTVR
# Assays:
# [1] = biological target: T1, human TMEM129 (E3 ligase), endogenous …; experiment: immunoprecipitation with anti-TMEM129 from HeLa^FcRn cells transfected with Derlin-1
# [2] = biological target: T2, FLAG-tagged human FcRn heavy chain (pcDNA-FLAGFcRn), expressed in HeLa^FcRn cells (human, UniProt P55899 24-365); experiment: probing for interactions in HeLa^FcRn cells transfected with HA-tagged HCMV cDNAs
# T2 construct: whole, on cells; it pairs with endogenous β2m in the cells; also called FcRn HC; WT FcRn
# [3] = biological target: T3, HA-tagged HCMV US11 (pEF6-US11, gene synthesised from HCMV AD169 DNA), expressed in HeLa cells (human cytomegalovirus (AD169 DNA as …, UniProt P09727 18-215)); experiment: immunoprecipitation of US11 from HeLa^US11 cells, blot for Derlin-1
# T3 construct: Full-length membrane glycoprotein expressed in transfected HeLa cells and tested in CHAPS lysates; also called HCMV glycoprotein US11; wild-type US11
# [4] = biological target: T3, HA-tagged HCMV US11 (pEF6-US11, gene …); experiment: reciprocal co-immunoprecipitation (anti-HA, anti-FLAG) from HeLa^HFE+US11 lysates
# [5] = biological target: T2, FLAG-tagged human FcRn heavy chain …; experiment: reciprocal co-immunoprecipitation (anti-HA for US2, anti-FLAG for FcRn) from HeLa^FcRn+US2 lysates
# T2 sequence (P55899 other isoform, or with tags, fused parts or gaps): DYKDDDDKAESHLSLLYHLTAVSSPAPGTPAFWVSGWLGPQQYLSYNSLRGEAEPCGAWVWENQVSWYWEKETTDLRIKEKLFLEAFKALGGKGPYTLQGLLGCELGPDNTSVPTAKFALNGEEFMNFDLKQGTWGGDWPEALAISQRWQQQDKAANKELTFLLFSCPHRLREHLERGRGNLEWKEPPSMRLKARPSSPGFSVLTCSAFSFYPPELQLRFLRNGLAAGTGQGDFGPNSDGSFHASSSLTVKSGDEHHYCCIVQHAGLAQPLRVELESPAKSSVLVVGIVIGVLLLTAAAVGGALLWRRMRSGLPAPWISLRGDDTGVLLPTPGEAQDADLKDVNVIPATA
binder,measurement,setting,value
"Myc-tagged human Derlin-1 (pSectag2-Derlin-1) (other, whole, on cells; Transiently expressed in HeLa transfectants; tested in lysates; also called myc-tagged Derlin-1; Derlin-1 (WT)) SDIGDWFRSIPAITRYWFAATVAVPLVGKLGLISPAYLFLWPEAFLYRFQIWRPITATFYFPVGPGTGFLYLVNLYFLYQYSTRLETGAFDGRPADYLFMLLFNWICIVITGLAMDMQLLMIPLIMSVLYVWAQLNRDMIVSFWFGTRFKACYLPWVILGFNYIIGGSVINELIGNLVGHLYFFLMFRYPMDLGGRNFLSTPQFLYRWLPSRRGGVSGFGVPPASMRRAADQNGGGGRHNWGQGFRLGDQEQKLISEEDL",binding result,[1],binds
"HA-tagged HCMV US6, expressed in HeLa^FcRn cells (other, whole, on cells) ERSSRDPKTLLSLSPRQQACVPRTKSHRPVCYNDTGDCTDADDSWKQLGEDFAHQCLQAAKKRPKTHKSRPNDRNLEGRLTCQRVRRLLPCDLDIHPSHRLLTLMNNCVCDGAVWNAFRLIERHGFFAVTLYLCCGITLLVVILALLCSITYESTGRGIRRCGS",binding result,[2],binds
"Derlin-1 in HeLa^US11 or HeLa^US11Q192L stable cells (FIG. 16A; no transfection of Derlin-1 stated) (other, whole, on cells) SDIGDWFRSIPAITRYWFAATVAVPLVGKLGLISPAYLFLWPEAFLYRFQIWRPITATFYFPVGPGTGFLYLVNLYFLYQYSTRLETGAFDGRPADYLFMLLFNWICIVITGLAMDMQLLMIPLIMSVLYVWAQLNRDMIVSFWFGTRFKACYLPWVILGFNYIIGGSVINELIGNLVGHLYFFLMFRYPMDLGGRNFLSTPQFLYRWLPSRRGGVSGFGVPPASMRRAADQNGGGGRHNWGQGFRLGDQ",binding result,[3],binds
"FLAG-tagged human HFE (hemochromatosis protein), expressed in HeLa^HFE cells (other, whole, on cells; Specificity control with an MHC class I-like structure; also called HEF; HeLa^HFE+US11) DYKDDDDKRLLRSHSLHYLFMGASEQDLGLSLFEALGYVDDQLFVFYDHESRRVEPRTPWVSSRISSQMWLQLSQSLKGWDHMFTVDFWTIMENHNHSKESHTLQVILGCEMQEDNSTEGYWKYGYDGQDHLEFCPDTLDWRAAEPRAWPTKLEWERHKIRARQNRAYLERDCPAQLQQLLELGRGVLDQQVPPLVKVTHHVTSSVTTLRCRALNYYPQNITMKWLKDKQPMDAKEFEPKDVLPNGDGTYQGWITLAVPPGEEQRYTCQVEHPGLDQPLIVIWEPSPSGTLVIGVISGIAVFVVILFIGILFIILRKRQGSRGAMGHYVLAERE",binding result,[4],no binding
"HA-tagged HCMV US2 (pEF6-US2), expressed in HeLa cells (other, whole, on cells; also called HeLa^US2; HeLa^FcRn+US2) MNNLWKAWVGLWTSMGPLIRLPDGITKAGEDALRPWKSTAKHPWFQIEDNRCYIDNGKLFARGSIVGNMSRFVFDPKADYGGVGENLYVHADDVEFVPGESLKWNVRNLDVMPIFETLALRLVLQGDVIWLRCVPELRVDYTSSAYMWNMQYGMVRKSYTHVAWTIVFYSINITLLVLFIVYVTVDCNLSMMWMRFFVCYPYDVPDYA",binding result,[5],no binding
"HA-tagged HCMV UL16, expressed in HeLa^FcRn cells (other, whole, on cells) VDLGSKSSNSTCRLNVTELASIHPGETWTLHGMCISICYYENVTEDEIIGVAFTWQHNESVVDLWLYQNDTVIRNFSDITTNILQDGLKMRTVPVTKLYTSRMVTNLTVGRYDCLRCENGTTKIIERLYVRLGSLYPRPPGSGLAKHPSVSADEELSATLARDIVLVSAITLFFFLLALRIPQRLCQRLRIRLPHRYQRLRTED",binding result,[2],binds
